Test results as given in the supplement of paper PMC9233669.
This sample holds only a part of the variants without activity.

Columns and labels:
biotinyl-Leu-oxazolone = assay: self-aminoacylation, catalytic enhancement (BLO) (fold over background); higher = more active; k-Seq, kA / k0A0; sequences stand for … in GGGAAUGGAUCCACAUCUACGAAUUC…UUCACUGCAGACUUGACGAAGCUG
Summary of the method: (§1)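 Mutagenized RNA pools with a 21-nt variable region (0.43 μM) reacted with each biotinyl-aminoacyl-oxazolone at 2–1250 μM. Reactions ran in 50 μL HEPES/NaCl/KCl/MgCl2/CaCl2 buffer with 5% acetonitrile, pH 6.9–7.0, for 90 minutes at room temperature. Streptavidin-captured RNA was quantified by triplicate qPCR and Illumina sequencing, and per-sequence fraction reacted was fit to a pseudo-first-order model with 1000 bootstraps. Catalytic enhancement is median kA divided by the uncatalyzed rate, the low-activity peak of a bimodal Gaussian fit.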

biotinyl-Ile-oxazolone = assay: self-aminoacylation, catalytic enhancement (BIO) (fold over background); higher = more active; k-Seq, kA / k0A0; sequences stand for … in GGGAAUGGAUCCACAUCUACGAAUUC…UUCACUGCAGACUUGACGAAGCUG
Summary of the method: as §1

biotinyl-Phe-oxazolone = assay: self-aminoacylation, catalytic enhancement (BFO) (fold over background); higher = more active; k-Seq, kA / k0A0; sequences stand for … in GGGAAUGGAUCCACAUCUACGAAUUC…UUCACUGCAGACUUGACGAAGCUG
Summary of the method: as §1

biotinyl-Met-oxazolone = assay: self-aminoacylation, catalytic enhancement (BMO) (fold over background); higher = more active; k-Seq, kA / k0A0; sequences stand for … in GGGAAUGGAUCCACAUCUACGAAUUC…UUCACUGCAGACUUGACGAAGCUG
Summary of the method: as §1

biotinyl-Trp-oxazolone = assay: self-aminoacylation, catalytic enhancement (BWO) (fold over background); higher = more active; k-Seq, kA / k0A0; sequences stand for … in GGGAAUGGAUCCACAUCUACGAAUUC…UUCACUGCAGACUUGACGAAGCUG
Summary of the method: as §1

biotinyl-Val-oxazolone = assay: self-aminoacylation, catalytic enhancement (BVO) (fold over background); higher = more active; k-Seq, kA / k0A0; sequences stand for … in GGGAAUGGAUCCACAUCUACGAAUUC…UUCACUGCAGACUUGACGAAGCUG
Summary of the method: as §1

| Sequence | self-aminoacylation (biotinyl-Leu-oxazolone) | self-aminoacylation (biotinyl-Ile-oxazolone) | self-aminoacylation (biotinyl-Phe-oxazolone) | self-aminoacylation (biotinyl-Met-oxazolone) | self-aminoacylation (biotinyl-Trp-oxazolone) | self-aminoacylation (biotinyl-Val-oxazolone) |
| --- | --- | --- | --- | --- | --- | --- |
| AAGUUUGCGAAGAGUCGCAAG [Fam3.1 aminoacylation ribozyme variant] | 1.04 | 1.36 | 1.49 | 0.955 | 1 | 1.21 |
| AAGUUUUCUAAUAGUGGCAAG [Fam3.1 aminoacylation ribozyme variant] | 0.804 | 0.856 | 0.75 | 0.758 | 0.658 | 0.662 |
| CUACUUCCAACAAUGGGUCUG [Fam1A.1 aminoacylation ribozyme variant] | 0.795 | 0.951 | 0.635 | 0.932 | 0.789 | 0.835 |
| AUUCACCUAGGCCAUCGCGUG [Fam2.2 aminoacylation ribozyme variant] | 6.31 | 4.69 | 31.6 | 4.45 | 3.85 | 4.15 |
| AAGUAUGCUAAUAGUCGCAAA [Fam3.1 aminoacylation ribozyme variant] | 1.26 | 1.82 | 3.99 | 1.67 | 1.7 | 1.96 |
| CUUACCCUGGUCAUCCAGUGA [Fam2.1 aminoacylation ribozyme variant] | 4.63 | 2.37 | 16.9 | 4.04 | 5.03 | 2.77 |
| AGUCACCUAGGUCAUCGGAUG [Fam2.2 aminoacylation ribozyme variant] | 1.18 | 1.2 | 1.24 | 1.21 | 0.786 | 1.04 |
| AUUACCCUGGUCGUCGAAUGA [Fam2.1 aminoacylation ribozyme variant] | 0.734 | 0.785 | 3.37 | 1.22 | 1.1 | 0.838 |
| CUACUUCAAACAAGGGGUCUG [Fam1A.1 aminoacylation ribozyme variant] | 0.748 | 0.773 | 0.71 | 0.746 | 0.593 | 0.801 |
| UUUCACCUAGGUCAUCGGGUA [Fam2.2 aminoacylation ribozyme variant] | 36.1 | 14.7 | 184 | 27.4 | 21.2 | 13.9 |
| AUUCAUCUAGGUUAUCGGGUG [Fam2.2 aminoacylation ribozyme variant] | 3.86 | 2.37 | 28.8 | 3.02 | 3.36 | 2.44 |
| AUUACCCUGGUAAUCGAGGGA [Fam2.1 aminoacylation ribozyme variant] | 0.931 | 1.1 | 0.55 | 0.924 | 0.832 | 1.04 |
| AUUACCCUUGUCAUCCAGUGA [Fam2.1 aminoacylation ribozyme variant] | 3.44 | 2.21 | 9.92 | 3.41 | 3.96 | 2.25 |
| AUUAACCUGGUCAUCGCGUGA [Fam2.1 aminoacylation ribozyme variant] | 19.1 | 8.07 | 126 | 17.2 | 21.5 | 7.74 |
| AUUCACCUAGGACAUCGCGUG [Fam2.2 aminoacylation ribozyme variant] | 4.57 | 2.53 | 26.8 | 3.57 | 3.99 | 2.83 |
| AUUUACCAAGGUCAUCGGGUG [Fam2.2 aminoacylation ribozyme variant] | 9.69 | 4.61 | 77.2 | 7.36 | 7.11 | 4.6 |
| AUUCCCCUAGUCAUCGAGUGA [Fam2.1 aminoacylation ribozyme variant] | 11.6 | 6.5 | 66.1 | 11.5 | 15.3 | 7.18 |
| ACUACCCUGGUCCUCGAGUGA [Fam2.1 aminoacylation ribozyme variant] | 3.84 | 2.6 | 17.6 | 4.59 | 4.3 | 2.25 |
| CCAGACUUCAAGCAAUCCGUC [Fam1B.1 aminoacylation ribozyme variant] | 1.45 | 1.67 | 1.19 | 1.47 | 1.95 | 1.58 |
| AUUCACCGAGGUCGUCGGGUG [Fam2.2 aminoacylation ribozyme variant] | 3.03 | 2.55 | 11.1 | 3.16 | 3 | 2.55 |
| CGUCACCUAGGUCAUCGGGUG [Fam2.2 aminoacylation ribozyme variant] | 4.11 | 3.51 | 28.9 | 3.71 | 6 | 5.16 |
| CCACACGUCAAGCAAACGGUC [Fam1B.1 aminoacylation ribozyme variant] | 0.809 | 0.784 | 0.465 | 0.86 | 0.619 | 1.37 |
| AUUACCCUGCUCAUCGAGUGG [Fam2.1 aminoacylation ribozyme variant] | 1.09 | 0.831 | 0.52 | 1 | 0.578 | 0.81 |
| CUACUUCAAACAGUCGGACUG [Fam1A.1 aminoacylation ribozyme variant] | 0.564 | 0.853 | 0.77 | 0.697 | 0.682 | 0.826 |
| AAGUUUGCGUAUAGUCGCAAG [Fam3.1 aminoacylation ribozyme variant] | 0.753 | 0.888 | 1.22 | 1.21 | 1.23 | 0.996 |
| CCACACUUCAUGCAAUCGGUG [Fam1B.1 aminoacylation ribozyme variant] | 5.5 | 2.55 | 27 | 4.27 | 4.65 | 2.65 |

| Sequence | self-aminoacylation (biotinyl-Leu-oxazolone) | self-aminoacylation (biotinyl-Ile-oxazolone) | self-aminoacylation (biotinyl-Phe-oxazolone) | self-aminoacylation (biotinyl-Met-oxazolone) | self-aminoacylation (biotinyl-Trp-oxazolone) | self-aminoacylation (biotinyl-Val-oxazolone) |
| --- | --- | --- | --- | --- | --- | --- |
| AUUACCCUGAUCCUCGAGUGA [Fam2.1 aminoacylation ribozyme variant] | 3.73 | 2.35 | 8.63 | 3.7 | 3.91 | 2.52 |
| GUUCACCUGGGUCAUCGGGUG [Fam2.2 aminoacylation ribozyme variant] | 5.35 | 4.47 | 39.4 | 5.48 | 8.32 | 5.58 |
| CUACUCCAAACAAUCGGUGUG [Fam1A.1 aminoacylation ribozyme variant] | 0.964 | 0.733 | 1.03 | 0.945 | 0.752 | 0.879 |
| CCACACUUGAGGCAAUCGGUC [Fam1B.1 aminoacylation ribozyme variant] | 1.6 | 1.63 | 1.28 | 1.48 | 1.86 | 1.81 |
| AUUCACCUAUGUCGUCGGGUG [Fam2.2 aminoacylation ribozyme variant] | 1.44 | 1.19 | 6.21 | 1.28 | 1.3 | 1.15 |
| AUUCACAUAGCUCAUCGGGUG [Fam2.2 aminoacylation ribozyme variant] | 2.36 | 2 | 12.6 | 1.91 | 2.34 | 2.38 |
| AAGUUCGCUAAUCGUCGCAAG [Fam3.1 aminoacylation ribozyme variant] | 1.05 | 1.6 | 6.17 | 1.25 | 2.55 | 1.48 |
| CCACACUUCAACCAAGCGGUC [Fam1B.1 aminoacylation ribozyme variant] | 0.761 | 0.95 | 0.838 | 0.914 | 0.613 | 1.08 |
| AUUAACCUAGGUCAUCGGGCG [Fam2.2 aminoacylation ribozyme variant] | 5.44 | 2.55 | 4.51 | 3.99 | 2.17 | 2.63 |
| CUUCUUAAAACAAUCGGUCUG [Fam1A.1 aminoacylation ribozyme variant] | 0.739 | 0.859 | 0.699 | 0.895 | 0.564 | 0.748 |
| AUUCACCUAGGUCAUCUGUUG [Fam2.2 aminoacylation ribozyme variant] | 0.618 | 0.795 | 0.429 | 0.564 | 0.373 | 0.693 |
| AUUAACGUGGUCAUCGAGUGA [Fam2.1 aminoacylation ribozyme variant] | 4.72 | 2.95 | 18.6 | 4.88 | 6.07 | 2.75 |
| CUACUUCAAACAGUCGUUCUG [Fam1A.1 aminoacylation ribozyme variant] | 0.475 | 0.579 | 0.701 | 0.589 | 0.472 | 0.611 |
| AUUCAUCUAGGUCAACGGGUG [Fam2.2 aminoacylation ribozyme variant] | 5.32 | 2.6 | 29.6 | 4.08 | 3.23 | 2.61 |
| AUUCACUUAGGUCAUCGGGAG [Fam2.2 aminoacylation ribozyme variant] | 1.22 | 1.02 | 0.746 | 1.1 | 0.745 | 1.11 |
| AUUCACCUAGGUCAGCCGGUG [Fam2.2 aminoacylation ribozyme variant] | 11.3 | 5.17 | 61.6 | 7.35 | 6.47 | 5.3 |
| CCACUUCAAACAAUCGGUCCG [Fam1A.1 aminoacylation ribozyme variant] | 1.59 | 1.08 | 38.5 | 1.18 | 16.8 | 1.49 |
| AUUACUCUGGUCAGCGAGUGA [Fam2.1 aminoacylation ribozyme variant] | 5.83 | 3.29 | 17.6 | 5.21 | 5.85 | 3.13 |
| AUUACCCUGGGCAUCGAGUGA [Fam2.1 aminoacylation ribozyme variant] | 5.1 | 2.57 | 21.4 | 4.85 | 5.82 | 2.75 |
| CUCCUUCAAACCAUCGGUCUG [Fam1A.1 aminoacylation ribozyme variant] | 0.781 | 0.815 | 1.69 | 0.805 | 0.905 | 0.977 |
| CCGCAAUUCAAGCAAUCGGUC [Fam1B.1 aminoacylation ribozyme variant] | 1.9 | 1.94 | 18.7 | 1.73 | 14.2 | 2.12 |
| AUUCACUUAGGUCAUCGGGUG [Fam2.2 aminoacylation ribozyme variant] | 8.1 | 3.87 | 48.3 | 6.36 | 6.28 | 3.86 |
| CUUUACCUAGGUCAUCGGGUG [Fam2.2 aminoacylation ribozyme variant] | 7.1 | 3.85 | 25.3 | 5.23 | 5.46 | 3.71 |
| CUACUUCAAACCAUCGGACUG [Fam1A.1 aminoacylation ribozyme variant] | 0.747 | 0.8 | 0.578 | 0.669 | 0.444 | 0.873 |
| ACUACCCUGGUCAUCUAGUGA [Fam2.1 aminoacylation ribozyme variant] | 7.72 | 3.86 | 63.1 | 7.5 | 7.62 | 3.97 |
